{"source": "paper PMC2806950", "about": "“Dissection of the DNA Mimicry of the Bacteriophage T7 Ocr Protein using Chemical Modification” (Journal of Molecular Biology, 2009)", "binders": {"B1": {"name": "Ocr (overcome classical restriction) protein of bacteriophage T7, unmodified (natural protein, UniProt P03775 1-117, looked up)", "chain": "MAMSNMTYNNVFDHAYEMLKENIRYDDIRDTDDLHDAIHMAADNAVPHYYADIFSVMASEGIDLEFEDSGLMPDTKDVIRILQARIYEQLTIDLWEDAEDLLNEYLEEVEEYEEDEE", "notes": "Ocr, product of gene 0.3 of bacteriophage T7; 116-amino-acid monomer as printed; Homodimer; also called WT; wild type Ocr; source: plasmid pAR2993 with the gene encoding WT Ocr"}}, "details_in_all_cases": "both partners purified", "key": {"[1]": {"target": "T1, M.EcoKI, DNA methyltransferase component (M2S1) of the EcoKI type I R/M system (E. coli K12, UniProt P08957 1-529; P05719 1-464)", "T1 construct": "M subunit (DNA methyltransferase activity) of the EcoKI type I R/M system of E. coli K12; also called methyltransferase core; copies: 2 + 1", "T1 sequence (looked up) 1": "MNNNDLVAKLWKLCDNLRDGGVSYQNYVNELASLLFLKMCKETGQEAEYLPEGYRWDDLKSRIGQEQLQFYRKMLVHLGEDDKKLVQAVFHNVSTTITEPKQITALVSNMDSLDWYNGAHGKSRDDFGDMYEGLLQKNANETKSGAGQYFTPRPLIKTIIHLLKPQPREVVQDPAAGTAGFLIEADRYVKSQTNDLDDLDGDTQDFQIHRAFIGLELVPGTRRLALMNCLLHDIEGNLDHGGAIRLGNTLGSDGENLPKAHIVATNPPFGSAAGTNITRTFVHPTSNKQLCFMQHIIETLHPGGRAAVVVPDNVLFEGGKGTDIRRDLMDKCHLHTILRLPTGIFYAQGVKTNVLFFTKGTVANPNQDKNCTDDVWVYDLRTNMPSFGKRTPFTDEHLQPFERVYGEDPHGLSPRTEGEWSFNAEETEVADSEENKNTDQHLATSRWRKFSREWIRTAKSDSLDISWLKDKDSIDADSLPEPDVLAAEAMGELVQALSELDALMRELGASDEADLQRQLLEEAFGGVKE", "T1 sequence (looked up) 2": "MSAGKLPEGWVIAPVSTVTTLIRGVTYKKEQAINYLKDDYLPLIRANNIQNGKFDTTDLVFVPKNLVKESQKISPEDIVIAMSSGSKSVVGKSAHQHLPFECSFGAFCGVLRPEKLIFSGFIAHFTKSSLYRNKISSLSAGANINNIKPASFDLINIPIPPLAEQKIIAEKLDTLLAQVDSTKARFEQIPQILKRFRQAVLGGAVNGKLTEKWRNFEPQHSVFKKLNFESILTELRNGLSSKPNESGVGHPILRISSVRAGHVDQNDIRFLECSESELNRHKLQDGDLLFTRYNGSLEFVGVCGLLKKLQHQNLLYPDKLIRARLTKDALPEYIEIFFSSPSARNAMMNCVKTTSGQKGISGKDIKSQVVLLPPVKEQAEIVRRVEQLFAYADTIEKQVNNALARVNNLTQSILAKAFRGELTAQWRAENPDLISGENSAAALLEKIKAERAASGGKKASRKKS", "assay": "ITC; as the Tris experiment but 20 mM Hepes in place of Tris-HCl, 25 °C, no NaCl"}, "[2]": {"target": "T1, M.EcoKI, DNA methyltransferase …", "assay": "ITC; Ocr (typically 40 uM) titrated into M.EcoKI (4 uM); 20 mM Tris-HCl pH 8.0, 6 mM MgCl2, 7 mM 2-mercaptoethanol, 100 uM SAM, with or without 500 mM NaCl; 10 to 30 °C"}, "[3]": {"target": "T1, M.EcoKI, DNA methyltransferase …", "assay": "fluorescence polarisation; competition with DNA: M.EcoKI titrated into 50 nM Ocr and 2 nM of a 21-bp DNA duplex fluorescently labelled at the 5' end; anisotropy of the DNA monitored"}}}
{"binder": "B1", "values": [{"measurement": "dH", "setting": "[1]", "result": -90, "unit": "kJ/mol"}, {"measurement": "dH", "setting": "[2]", "result": -86.2, "unit": "kJ/mol"}, {"measurement": "stoichiometry N", "setting": "[2]", "result": "1 Ocr dimer per molecule of M.EcoKI"}, {"measurement": "Kd", "setting": "[3]", "result": 0.044, "unit": "nM"}]}
